Key:
[1] = molecular target: β-gal97S4DhCNP-22R5-3 fusion protein (Escherichia coli; human) [β-galactosidase: P00722]
[2] = molecular target: β-gal97S4DhCNP-22R3-2 fusion protein (Escherichia coli; human) [β-galactosidase: P00722]
[3] = molecular target: β-gal97S4DhCNP-22R5-2 fusion protein (Escherichia coli; human) [β-galactosidase: P00722]
[4] = molecular target: fusion protein encoded by pG97S4DhCT(G)R5 (β-gal97S4D - linker R5 - hCT(G)) (Escherichia coli; human) [β-galactosidase: P00722]
[5] = molecular target: fusion protein encoded by pG97S4DhCT(G)R4 (β-gal97S4D - linker R4 - hCT(G)) (Escherichia coli; human) [β-galactosidase: P00722]

With “V8 protease (from UniProt P0C1U8) (enzyme)” the release efficiency of human CNP-22 (HPLC) [1] was 92%, the release efficiency of human CNP-22 (HPLC) [2] was 99% and the release efficiency of human CNP-22 (HPLC) [3] was 95%. The cleavage efficiency (hCT(G) released, HPLC) [4] was 7% and the cleavage efficiency (hCT(G) released, HPLC) [5] was 97%.

Source: patent US5670340
